Test system: Escherichia coli TOP10
Test: shrunken log2 fold change of peptide-encoding DNA abundance (4.5 h post-induction vs induction); higher = less antimicrobial activity (less host growth inhibition)
Conditions: time post-induction: 4.5 h; library: site-saturation at positions 5, 18, 19, 20
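Also: peptides expressed intracellularly from a pBAD plasmid library in pooled LB shake-flask culture, induced with 0.3% L-arabinose, DNA abundance read by NGS, three biological replicates, DESeq2 with apeglm shrinkage.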

| Sequence | shrunken log2 fold change |
| --- | --- |
| RRIRKRPPRLPRPRPRPVLHPRP | 0.484 |
| RRIRKRPPRLPRPRPRPVMPPRP | 0.244 |
| RRIRKRPPRLPRPRPRPVPNPRP | -0.00404 |
| RRIRKRPPRLPRPRPRPVQKPRP | 0.242 |
| RRIRKRPPRLPRPRPRPVQTPRP | 0.914 |
| RRIRKRPPRLPRPRPRPVRWPRP | 0.809 |
| RRIRKRPPRLPRPRPRPVSNPRP | -0.212 |
| RRIRKRPPRLPRPRPRPVSSPRP | 0.00728 |
| RRIRKRPPRLPRPRPRPVTQPRP | 0.169 |
| RRIRKRPPRLPRPRPRPVTSPRP | 0.0678 |
| RRIRKRPPRLPRPRPRPVVDPRP | -0.0213 |
| RRIRKRPPRLPRPRPRPWEVPRP | 0.0986 |
| RRIRKRPPRLPRPRPRPWFEPRP | 0.0346 |
| RRIRKRPPRLPRPRPRPWGKPRP | 0.0646 |
| RRIRKRPPRLPRPRPRPWGWPRP | 0.691 |
| RRIRKRPPRLPRPRPRPWHLPRP | -0.596 |
| RRIRKRPPRLPRPRPRPWIWPRP | 1.96 |
| RRIRKRPPRLPRPRPRPWKGPRP | 0.0195 |
| RRIRKRPPRLPRPRPRPWLDPRP | 0.296 |
| RRIRKRPPRLPRPRPRPWMMPRP | 0.211 |
| RRIRKRPPRLPRPRPRPWMRPRP | 0.373 |
| RRIRKRPPRLPRPRPRPWPEPRP | 0.0451 |
| RRIRKRPPRLPRPRPRPWPTPRP | 0.103 |
| RRIRKRPPRLPRPRPRPWQRPRP | -0.0202 |
| RRIRKRPPRLPRPRPRPWSEPRP | 0.00538 |

| Sequence | shrunken log2 fold change |
| --- | --- |
| RRIRKRPPRLPRPRPRPWYQPRP | 0.218 |
| RRIRKRPPRLPRPRPRPWYSPRP | -0.234 |
| RRIRKRPPRLPRPRPRPYCSPRP | -0.0347 |
| RRIRKRPPRLPRPRPRPYCVPRP | -0.382 |
| RRIRKRPPRLPRPRPRPYENPRP | -0.517 |
| RRIRKRPPRLPRPRPRPYGEPRP | 0.0585 |
| RRIRKRPPRLPRPRPRPYGHPRP | -0.162 |
| RRIRKRPPRLPRPRPRPYGKPRP | -0.154 |
| RRIRKRPPRLPRPRPRPYGVPRP | 0.0715 |
| RRIRKRPPRLPRPRPRPYHFPRP | -0.031 |
| RRIRKRPPRLPRPRPRPYHYPRP | 0.00414 |
| RRIRKRPPRLPRPRPRPYKQPRP | -0.0754 |
| RRIRKRPPRLPRPRPRPYLYPRP | -0.404 |
| RRIRKRPPRLPRPRPRPYNRPRP | -0.0322 |
| RRIRKRPPRLPRPRPRPYQWPRP | -0.143 |
| RRIRKRPPRLPRPRPRPYRNPRP | 0.00408 |
| RRIRKRPPRLPRPRPRPYTCPRP | -0.175 |
| RRIRKRPPRLPRPRPRPYTPPRP | -0.344 |
| RRIRKRPPRLPRPRPRPYTWPRP | -0.231 |
| RRIRKRPPRLPRPRPRPYVRPRP | 0.00408 |
| RRIRKRPPRLPRPRPRPYWMPRP | -0.19 |
| RRIRKRPPRLPRPRPRPYYRPRP | -0.827 |
| RRIRKRPPRLPRPRPRPYYSPRP | -0.373 |
| RRIRLRPPRLPRPRPRPAAVPRP | 0.376 |
| RRIRLRPPRLPRPRPRPACFPRP | 0.259 |

| Sequence | shrunken log2 fold change |
| --- | --- |
| RRIRLRPPRLPRPRPRPADEPRP | 0.167 |
| RRIRLRPPRLPRPRPRPADNPRP | -0.26 |
| RRIRLRPPRLPRPRPRPADRPRP | -0.0121 |
| RRIRLRPPRLPRPRPRPAECPRP | -0.167 |
| RRIRLRPPRLPRPRPRPAEFPRP | -0.011 |
| RRIRLRPPRLPRPRPRPAGMPRP | 0.213 |
| RRIRLRPPRLPRPRPRPAGVPRP | 0.103 |
| RRIRLRPPRLPRPRPRPAHFPRP | -0.197 |
| RRIRLRPPRLPRPRPRPAHMPRP | -0.0737 |
| RRIRLRPPRLPRPRPRPAKFPRP | 0.0249 |
| RRIRLRPPRLPRPRPRPAMKPRP | -0.0543 |
| RRIRLRPPRLPRPRPRPAMYPRP | -0.139 |
| RRIRLRPPRLPRPRPRPAPPPRP | 0.676 |
| RRIRLRPPRLPRPRPRPAPTPRP | 0.28 |
| RRIRLRPPRLPRPRPRPAQQPRP | 0.0982 |
| RRIRLRPPRLPRPRPRPAREPRP | 0.678 |
| RRIRLRPPRLPRPRPRPASGPRP | 0.373 |
| RRIRLRPPRLPRPRPRPASMPRP | -0.357 |
| RRIRLRPPRLPRPRPRPASNPRP | -0.124 |
| RRIRLRPPRLPRPRPRPAWTPRP | 0.218 |
| RRIRLRPPRLPRPRPRPAYIPRP | -0.098 |
| RRIRLRPPRLPRPRPRPAYQPRP | -0.142 |
| RRIRLRPPRLPRPRPRPAYYPRP | -0.253 |
| RRIRLRPPRLPRPRPRPCAFPRP | -0.295 |
| RRIRLRPPRLPRPRPRPCCCPRP | -0.117 |
